Test: soluble fraction after stress (log2 fold change); higher = more stays soluble; pooled small domains, quantitative proteomics
Details: stress: 50 degC
In short: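 The measure of aggregation propensity here is the base-two logarithm of the fold change in the soluble amount of each protein after stress. A higher value means more of that protein stays in solution. Stress was applied at 50°C to pooled libraries of small protein domains, read out by high-throughput quantitative proteomics.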

Going from “HMDAATDAIKAEVRALLEMANAQGIDTESIMLEAHEQTRNATEQDYYEAAKSALEAAIAGSNRDR” to “HMAPEKLVHELVGLSLRAGNLDLLAATLSAHKTVLSKESTAEYVKAGLAIEPNHLPLRVLAEQDLGWS”, the “soluble fraction (log2)” value falls from 0.0377 to -0.57.

Going from “HMPANVELLRTFTNKTGTKIKARIVAVSDNKVKLIRDDSKKFIVPIDSLSEEDQKYLKDWIANEVGEQ” to “HMDVPNLVGKTLEEAENELKKLNIRYNVTERADEAPKDTVIEQSPKPYEAMEPGTVVNLVISSGPA”, the “soluble fraction (log2)” value rises from 0.0498 to 0.533.

First: HMVEVPNVIGMTKPELTQQFVNLKLDGSGEGDVVVQQSPSEGSKVKEGSTVRVYFG
Second: HMREEMYGLIGFITTSEVTDTFGQMEIKLENEPEMRINVRTNPGESLARGDAAKIISFNNSNGTFLVELTK
The “soluble fraction (log2)” value of the first is higher: 0.0119 for the first, -0.474 for the second.

Compared with “HMDKPIFTLRENEVLYWASMGKTYAEIATIVGISVRTVKFHMGNVVSKLGVSNARQAIRLGVELDLITPMQ”, “HMRRSKQERQQAIKTLISNEQIQRQEDLVRKLNEAGWEVTQATISRDITEMQLVKVPLPTGGFAYAVM” is higher in “soluble fraction (log2)” value: -2 for the first, 0.126 for the second.

First: HMSLPTYVQISEAIARRITAGQWLDGERLPPERTMAAEFGVAVGTLRKALSRLQDQKLLRRLQGSGNYINI
Second: HMDNTSNVEKTLRFIRQRGKVSRKEVETLLGSSKFPAISALNELLAENKIVKTGSGPAVRYSVS
The “soluble fraction (log2)” value of the first is lower: -1.57 for the first, -0.0887 for the second.

First: HMKQQAYEQGKAAYQSGDWLRAVTQLGQVKEAGEKNGEVDHLLGNAYMKLGQFESAAYAYNSALEDVA
Second: HMSGYAIVNNQPGRTLNLRNSPSQSNNIIGQIPSGTRLQLISRGETWSEVIFQTTRGFVMSSFLRFET
The “soluble fraction (log2)” value of the first is higher: 0.269 for the first, -0.809 for the second.

“HMWPTPRTWSALMNELNLYKENHGYANIVDIPSEKIRRMADGIIGEDMAVRYVAFLQSHASS” and “HMSWEDSLLKQAREIIDMYPQKRSAVGPLLHLAQSKDGYISDDSISVISKLVGITEVQLKSVSTFYSMYK” are within 0.2 log units of each other in “soluble fraction (log2)” value: -1.6 for the first, -1.59 for the second.

First: HMESFGVAIKRLREAQGWTRADFLRQLGKTGYYMHATTLKRIEEGEQIAKVHEAVIISRLFGVTVEEMG
Second: HMQEAATSLNAKILAKLRENNGTLAVSDKSDPALISSLFGVSKGNFKKAIGALYKNGQIVIHADRIEL
The “soluble fraction (log2)” value of the first is lower: -2.94 for the first, -0.436 for the second.

Going from “HMKPLAQQVNDYLAATRTSIATLANEIPGYSRPTISRYLAGKYDGDITTIEKLLAEWLAQRTG” to “HMESYDSEIKEVLDLAGKGRWEEAQTKADALREMAPNNSLVERLHGWVLQAAHQRREQALENDIRE”, the “soluble fraction (log2)” value rises from -0.354 to 0.286.

Compared with “HMFMPGTIIKQFRELRNYSQDYVSRKMGISQNAYSKIENNITQLTVTHVKQLSSILDVPIVELLR”, “HMINIGANIRAIRKQKNIKQVDLVRLLQLEGVEITRETLVKIESGVQHIKASQLRGIRDALGTTYDELL” is higher in “soluble fraction (log2)” value: -3.32 for the first, -2.95 for the second.

“HMVFLPDEIFRLKVIKAGEGPEQGVGYLDDGTMVVIEGARDRIGDELEVRVTSTLQTNAGKMIFTKFE” and “HMFWVESDVDFVDKTSAHNAIKENERVIGMYISYRLNGTWTTEQYVGIDTSKDNWENPDNWNIL” are within 0.2 log units of each other in “soluble fraction (log2)” value: -0.186 for the first, -0.308 for the second.

Compared with “HMKYTVKSPLPGVIMSVLVKVGDTVKASDTVISLEAMKMENAIHAGRDGKVTSIDVNVGDSVLEGHTLVTI”, “HMETLKLRDSGKEVQSLQELLQRQGLSAPMNGIFDEATKSSVIAFQKANGLDADGIVGYKSWETLFTAG” is higher in “soluble fraction (log2)” value: -0.386 for the first, 0.132 for the second.

Going from “HMKKTPLSELTNRAVELFIETVFMERNYSVSSQRQFISALKIFTVFYPQTKIHNLSLERLQSSFDKLLN” to “HMTGQLTEEELKQRQERAMSNPEIQGILSDPVMRQVLQDMSTDPKAAAEHQRNPTIMAKIQKLINAGIVQV”, the “soluble fraction (log2)” value rises from -0.452 to 0.11.

First: HMVEGTVKWFNDEKGFGFIEQEGGKDVFVHFSAINGSGRRTLHEGQRVTMEVTQGQKGPQAENVNP
Second: HMHKYQVGETVYYTSPTFGRAAATGSYIVVKLLPSEGDDYQYRIKSSGEAFERVAKESQLDR
The “soluble fraction (log2)” value of the first is higher: 0.181 for the first, -0.734 for the second.

First: HMEALSAREIEILQALETGASNRELAKMLFISEATVKTHLVHIYQKLGVGTRTAAITEARERRV
Second: HMGRTGTVVVSPSLNVRTGPWGEIIGSLYNGNKVEIIGSSGDWYQISFGGKTAYVHSDYVVDGG
The “soluble fraction (log2)” value of the first is lower: -1.64 for the first, -0.51 for the second.

“HMQAKDVEIPNFVGKTLAEANADNKDNFNFVVESKYDASKELGVILEQEPAADSKLVKSGSQITLKV” and “HMRPNREKDMADLEKLAPFLLQMLTNYAQMTGDEKPLNAFITRFGYAAQIRDIQDFFMGPWHPA” cannot be ordered by “soluble fraction (log2)” value: at least 0.62 for the first, at least 0.62 for the second.

Going from “HMKKQLTISDGDWAGKVSSMLEDMGVINSASEFDKYLSDNGYSNVIKSGTYDVSPEDTFQELAEKIT” to “HMKPALFSADELNRLYRYGLSLTGERDRAYDLLQTALEKYLRQSQAPANAMRYVRKIMHNQFIDDYR”, the “soluble fraction (log2)” value falls from 0.414 to -1.13.

Going from “HMIGEKLKEIREKTGMNKKEFAQYLGLKYTTYNNYETEAREPASDFLILISTKFDVSIDYLLGLQ” to “HMSDRLRLGRRIRAARLEQNLSQAALAERLGISASYLNLLEHDRRSLTTVLLLKLAQVLGLELRDLAAG”, the “soluble fraction (log2)” value falls from -0.674 to -1.99.

Compared with “HMTTETGTVKWFNEGKGFGFIAPDGGGKDLFAHFKEIQGSGFKTLTENQRVQFEVTQGQKGPQASNIRTL”, “HMHNSPSPVATTILRFLQPVRAFVGDTEDMRTFGPFLREDVAMVPASQAKNLIRSGHAVEINP” is lower in “soluble fraction (log2)” value: 0.243 for the first, -0.0361 for the second.

Compared with “HMQSNDTAEIEAVVKEIMAANERVVNDYRSGNTKVVSFFVGQVMKATKGKANPKVVNEVLAKLLK”, “HMGNGALLTLTVKERQVIQLVAEGKSNKQIARDLNVTPETIKSHMKNIFAKLKVDNRAQAAVMVQQ” is lower in “soluble fraction (log2)” value: 0.0929 for the first, -0.638 for the second.

Going from “HMNSTEQQTERFLATLTSLGGNAGNQRLQEALGWQGSTYQRIKQHLLDEGRIRTGRGRGGSVALSEATAT” to “HMSRTLLVYVTGAVRQPGVYELPEGSRFFDAVKAAGDVLPYAVMEDINMAEPLSDGMKIHIPLDPEQ”, the “soluble fraction (log2)” value falls from 0.143 to -0.125.

First: HMSSQVFLGQKNSIAKYDLNENKPIWTKEIKGTPLILSTWKDMLLIQIQTWVSYTHMLVKQENGQTVWE
Second: HMGMAGILDSARMASFIQEKLGYGGGQIRASVMGGHGDDMVPLPRYSTVAGVPLSDVLTQNEIDEMFAQ
The “soluble fraction (log2)” value of the first is higher: 0.318 for the first, -0.0615 for the second.

Compared with “HMPDGTATATASVNVRSGASTLSPVLGVLRVGESIGVTGQANGGWVPVNYNGRAGYVYAAYLSFD”, “HMSKKIVLPAAITVKKFSETLDMPLGTVISELMKNGILATINERIDFETASIIAQDLGYEVSEEV” is higher in “soluble fraction (log2)” value: -0.161 for the first, 0.173 for the second.

First: HMAGDVVVEVVGKVRDPQVVTLPKGSRVQDALEAAGGVKPGVNTTDQNLARLLVDGEQIRIGLSS
Second: HMKKYIEIYNYYKQLIESEQLKSGDKMPSVRKATKIFNVSKTTVQNAYFDLQADGYIIAAPKSGYYVTEM
The “soluble fraction (log2)” value of the first is higher: 0.0918 for the first, -0.295 for the second.

Going from “HMLSYDDTVVIGRNLLENAMKQKNIALEQLTDEVLARLAKELQVESVEAMYAGIGSGKRPSSFIINRLEAH” to “HMFMMVAGHLQIKNEKYYMVLELRTEQGERKTKWIGTGLAVKGNKRRAEAMLEETRTKYLSPV”, the “soluble fraction (log2)” value falls from -0.569 to -1.95.

First: HMRAEPNSNYSLAIIYKNRYDIAVKKKDAVKEVEYGKMVYEYLNKYVVLSGNKSAKYKKILNYFSSY
Second: HMGPLSDRSVADWLLRLGLADTANNRLLLQVMHAAGLPLERTAVRAMRETAAGRPEGTDAREWLQAAAAAQ
The “soluble fraction (log2)” value of the first is lower: -3.04 for the first, -0.208 for the second.

Going from “HMEAPMPIFWRPQFRIGHDDIDADHRYLILLINTVELVLRFPDDPRNVELALTELRRYAEDHFEREER” to “HMVKIVWSKEGPYVGTRVRRYFSQGPVDGTVVMYAKPQKGDDVALWRISHDDGDEEDLEEQELRLAID”, the “soluble fraction (log2)” value falls from -0.161 to -1.65.

“HMSGEVLTAVVPETASGERLDKVLPQIFPPYSRSQLQTWLKEGRVTLDREIPAARLAVIGGETLRLEVPSL” and “HMSQDTLIGRVGVIVIGQARTGSPAQVRVKDGFGQTHYVMAEPDSEGVLKQGEAVLLVSLEGNTFKAILNP” are within 0.2 log units of each other in “soluble fraction (log2)” value: -0.145 for the first, -0.286 for the second.

Going from “HMQTTQQLIRNLRLKQAATLLADKRHSITEVATLTGFTHPTYFATAFREMFGVSPSEYMEQHI” to “HMDYKSKLQELVQTEKRTVEYKLVDESGPAHNKSFTFEVVISGIKYGSGTGASKKIAEQNAAKEALEKLA”, the “soluble fraction (log2)” value rises from -0.86 to -0.0871.

Compared with “HMVAMYLRVGISNGRRYLSIVQGYRDQVTKKVRHNTVKSLGYLDDLEKHYPDPIAHFKAVVEEMNKKQALE”, “HMGPPAVGSKLQDARKAQQLSLDELSKRAGVSKSMLSEVERNQANPTVGVLWRLATALGISLTDLLG” is higher in “soluble fraction (log2)” value: -0.847 for the first, -0.374 for the second.

“HMNEVETWSVQADGATGRIDKWLAEQNEWSRSQVQEWLKAGRVEVDGRVVKPNYKLSGTESIAVHIPEAV” and “HMANLAQITKTNAVALALKDVGAYNSEDLMKFIDLDKVVLGEDGKPQLEDTINSLKESSPYLFQ” are within 0.2 log units of each other in “soluble fraction (log2)” value: -0.0928 for the first, 0.0767 for the second.

Compared with “HMDEWFPVNDDYKFMVGDEVRTPDGLVKVVATHNDSATFYGKIITPIHDDVLKGETYEYRSYEAQVLA”, “HMAIHTSVTEHGEHDLTVRMEMEQVFAIEMAVVSHEQATMLERTFKANAEAIYQKLLGVMTQEYP” is lower in “soluble fraction (log2)” value: -0.425 for the first, -2.33 for the second.

“HMNLDELGNRIREQRIKQRLKQQDIANALMLSAQAVSKWERGENAPDISVLPDLVKILGVSVDWLLTGP” and “HMTYQHQSIIHRRTRGAILTAAKELLAESGISGTNMIEIADRAQVSRASLYNHFRDKHEVFLALVES” are within 0.2 log units of each other in “soluble fraction (log2)” value: -0.734 for the first, -0.677 for the second.

“HMNTSSVTVHYQDEAGKSLADTVTLTGKVGETYSSEQKKITGYNFKEVRGNPKGQFTTEAQTVTYVYTQAA” and “HMDAKNNPQVMAQIRAILTAKGLSEDEVKTRLKTKNIDVDKMTDQEIIAQRPAIEAIINEMEQEKKQKMG” are within 0.2 log units of each other in “soluble fraction (log2)” value: 0.156 for the first, 0.252 for the second.

Compared with “HMPRENLAYTLIMDGIVQHKNLPRASVTEAWLKQELQKAGINDFRQVLIAGIDSKGQLYFQPKQK”, “HMIPTDPNGDLIKILYTSDQINELYARAKLNDVEDLFLDWTKNVLGESNFEETGPTKNEYLIPQ” is lower in “soluble fraction (log2)” value: 0.528 for the first, -0.149 for the second.

Going from “HMMLVKKMLNGIMMKEITIKELADQYDVSTRTIQLKIKKLGYEWDSKESIYRYVGKESEPLDVDFSTLI” to “HMTPAKQVSAKAERWIDQLGSSDWEKREEAAAELKKLGGAAKSALEKALKNADPEVASKAEELLEALES”, the “soluble fraction (log2)” value rises from -3.29 to 0.0311.

“HMGTNTTGWIKIADDWKYIDSNGEYTVNDWRQSADGGWYYLGYNGNMLKNQTTPDGYYVDAEGLWDGMSPA” and “HMKVYPIMEAIANNNIELVKLLLEYHADLNIKDSNGNTPLALAKETGAKEVEDLLLQWMKQHT” are within 0.2 log units of each other in “soluble fraction (log2)” value: -0.709 for the first, -0.543 for the second.

“HMKLTALWTANPKISAPIYSEPSTQSKTLGRIYQGASVKVYSFDPEWAYINSSGVVGYVLRRHLE” and “HMSNWYKNNETDQIWWKDTPDSVGEWLFSFDKKQVFNMFADYPHNLTPEQKKIFDEENPEWSDRP” are within 0.2 log units of each other in “soluble fraction (log2)” value: -0.323 for the first, -0.328 for the second.

From the domain aggregation screens of Martell et al. (2025)
